Reference: PMC9400459 (Science (New York, N.y.), 2022)

Target: SARS-CoV-2 receptor binding domain (SARS-CoV-2, UniProt P0DTC2)
Test: cell-based or functional assay

B1: S2K146 human monoclonal antibody (antibody, V domains shown)
VH: QVQLVESGGVVVQPGGSLRLSCAASGFTFHDHTMHWVRQAPGKGLEWVSLITWNGGTIHYSDSVKGRFTISRDNSKNSLYLQMNSLRTEDTALYYCAKDLGRGGWYLPSDAWGQGTLVTVSS
VL: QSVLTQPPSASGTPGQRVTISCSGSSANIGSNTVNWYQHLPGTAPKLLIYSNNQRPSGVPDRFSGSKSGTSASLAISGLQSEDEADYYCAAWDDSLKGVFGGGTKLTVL
  IC50 of neutralisation of authentic SARS-CoV-2 (isolate USA-WA1/2020, lineage A): 10 ng/mL
